Laboratory results from patent publication US20230303681A1 (published 2023).
Where a chain is given by its changes, count along the chain named. “And” between values parts separate entries of the source, which are not always exact repeats. Equal values may be shown once.

B1: anti-TMEM106B antibody TM-17 (antibody, V domains shown)
VH: QVQLQQSGAELIRPGTSVKVSCKASGYAFTDYLIEWVKQRPGQGLEWIGVINPGSGGTNYNEKFKGKAKLTADKSSSTAYMQLSSLTSEDSAVYFCVRSSYGVYVAYPMDYWGQGTSVTVSS
VL: DIQMTQSPSSLSASLGERVSLTCRASQDIGSNLNWLQQEPDGTIKRLIYATSSLDSGVPKRFSGSRSGSDYSLTISSLESEDFVDYYCLQYASSPRTFGGGTKLEIK
B2: anti-TMEM106B antibody TM-11 (antibody, V domains shown)
VH: QVQLKQSGPGQVQPSQSLSITCTVSGFSLSDYGVHWVRQSPGKGLEWLGVIWNNGNTDYNAAFISRLSINKDNSKSQVFFKMTSLQADDTAIYYCVRSLRPLHFDYWGQGTTVTVSS
VL: DIVMTQSPSSLTMSVGQKVTMHCKSSQSLLNSNNLQNYLAWYQQKPGQSPTLLVYFASIRESGVPDRFIGSGSGTDFTLTISSVQAEDLADYFCQQHYNTPFTFGSGTKLEIR
B3: anti-TMEM106B antibody TM-12 (antibody, V domains shown)
VH: EVQLQQSGAELMRPGASVKLSCTASGFNIQDYYMYWVKQRPEQGLEWIGRIDPEDGDAEYAPKFQGKATMTADTSSNTAYLQLSSLTSEDTAVYYCSTRVIYDGYYRTMDCWGQGTSVTVSS
VL: DVLMTQIPLSLPVSLGDQASISCRSSQTIVHSNGNTYLEWYLKKPGQSPKLLIDKISNRFSGVPDRFSGSGSGTDFTLKISRVEAEDLGVYYCFQGSHVPYTFGGGTKLEIK
B4: anti-TMEM106B antibody TM-10 (antibody, V domains shown)
VH: QVQLQQSGAELVKPGASVKISCKGSGYAFSSYWMNWVKQRPGKGLEWIGQIYPGDGDTNYNGKFKGKATLTADKSSTTAYIHLSSLTSEDSAVYFCARWGHYDEAMDDWGQGTSVTVSS
VL: DVVMTQTPLSLPVSLGDQASISCRSSQSLVHSNGKTYLHWYVQKPGQSPKLLIYKISNRFSGVPDRFSGSGSGTDFTLKISRVEAEDLGVYFCSQITHVPWTFGGGTKLESK
B5: anti-TMEM106B antibody TM-16 (antibody, V domains shown)
VH: EVQLQQSGAELVRPGASVKLSCTTSGFNIKDYYMHWVKQRTEQGLEWIGRIDPEDGETKYAPEFQGKATITSDTSSNTAFLQLSSLTSEDTAVYYCASSQPFTYWGQGTLVTVSA
VL: QIVLTQSPAIMSASPGEKLTMTCSASSSLNYMYWYQQKPGSSPRLLIYDTSNLASGVPVRFSGSGSGTSYSLTISRMEAEDGATYYCQQWTSFPPTFGAGTKLELK
B6: anti-TMEM106B antibody TM-21 (antibody, V domains shown)
VH: EVQLVESGGGLVKPGGSLKLSCAASGFTFSNYAMSWVRETPEKRLEWVAFISDGGGYIYYADNVKDRFTISRDNAKNNLYLQMRHLKSEDTAMYYCARDGGTGFTYWGQGTLVTVSV
VL: DIVMTQAAFSNPVTLGTSASISCRSSKSLLHSNGITYLFWYLQKPGQSPQLLIYQMSNLASGVPDRFSSSGSGTDFTLRISRVEAEDVGVYYCVQNLELPYTFGGGTKLEIK
B7: anti-TMEM106B antibody TM-44 (antibody, V domains shown)
VH: EVQLVESGGGLVKPGGSLKLSCAASGFTFSDYGMHWVRQAPEKGLEWVAYISSGSSTIYYADTVKGRFTISRDNAKNTLFLQMTSLRSEDTAMYYCARNYGSPYAMDYWGQGTSVTVSS
VL: not shown
notes: mouse IgG from hybridoma
B8: anti-TMEM106B antibody TM-32 (antibody, V domains shown)
VH: EVQLQQSGAELVRPGASVRLSCIASGFNIKDYYMYWVKQRPEQGLEWIGRIDPEDGDTEYVPKFQGKATMTADTSSNTAYLQLSSLTSEDIGVYYCTTRTWDLYYAVDNWGQGTSVTVSS
VL: B3 VL with I7T, T28N, K43Q, I56V, V90I, Y101F, G105S
B9: anti-TMEM106B antibody TM-20 (antibody, V domains shown)
VH: B5 VH
VL: B5 VL with S62R
B10: anti-TMEM106B antibody TM-24 (antibody, V domains shown)
VH: B2 VH
VL: B2 VL with H22N, L35Q, T51K, S82N, N99S
notes: mouse IgG from hybridoma
B11: anti-TMEM106B antibody TM-30 (antibody, V domains shown)
VH: QVQLQQSGPELVKPGASVKLSCKASDNTFTNYDVNWVRQRPGQGLEWIGWIYPRDGTTIYNEKFKGRATLTVDTSSSTAYMELHSLTSEDSAVFFCARTLPQAMDYWGQGTSVTVSS
VL: B3 VL with I7S, A19V, S32R, K43Q, D54Y, I56V, V99L, Y101W
notes: mouse IgG from hybridoma

target: T1, human TMEM106B (human, UniProt Q9NUM4 2-274); experiment: FACS A549
T1 construct: Full-length, on transiently transfected HEK293 cells, or natively expressed on HeLa, U251 and A549 cells; also called huTMEM106B; huTMEM
Description: (§1) All cells were cultured in either T75 or T150 flasks. […] The enzyme was quenched by addition of fresh media, and the cells were then distributed into 96-well plates for FACS analysis.
(§2) FACS analysis was performed as follows. Each cell type was aliquoted in 96-well round bottom plates (2x10^5 cells per well), washed once with FACS buffer (PBS + 2% FBS + 1 mM EDTA), and incubated with 50 µL of hybridoma supernatant or purified antibody (10 µg/ml in FACS buffer) on ice for 1 hour. […] Following this secondary incubation, the cells were again washed 2x with ice-cold FACS buffer and resuspended in a final volume of 50 µL of FACS buffer + 0.25 µl/well propidium iodide (Fisher Scientific # BDB556463). Analysis was performed on a FACSCanto system (BD Biosciences) or iQue (Intellicyt), with sort gates drawn to exclude dead (i.e., propidium iodide positive) cells.
(§3) Data is presented as mean fluorescence intensity (MFI).

Compared with B1, B2 is higher in MFI: 953 for the first, 1340 for the second.

Compared with B3, B4 is lower in MFI: 1940 for the first, 823 for the second.

Going from B5 to B6, the MFI rises from 605 to 1030.

Work on B7 yielded an MFI of 392.

target: T2, GST (Pierce) (UniProt P08515 1-218 = GST, limits assumed); experiment: ELISA, coated GST;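 also: ELISA on plates coated with GST alone at 1-10 µg/ml, antibodies applied at 100-1000x dilution, bound antibody detected by peroxidase substrate colour after acid stop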
T2 construct: control for the GST part of the fusion protein; also called GST protein; Glutathione-S-transferase
Description: Briefly, 96-well polystyrene plates were coated with 1-10 µg/ml of recombinant GST-TMEM106B-truncated protein or GST (Pierce) in PBS either at 370 Cfor 1-4 hours or overnight at 4 °C. Coated plates were then blocked with 5% BSA for 1-hour, washed 3×150 µL in TBST (Tris-buffered saline + 0.1% Tween20), and then the antibodies were added at various dilutions (100-1000x) in PBS. After 1-hour incubation (room temperature, with shaking), the plates were washed 3x150 µL in TBST. […] After a final set of washes (3×150µL in TBST), 100 µL of peroxidase substrate was added for 1 minute; the reaction was then quenched with 2N sulfuric acid (100 µL).

B1: no binding.
B2: no binding.
B3: no binding.
B8: no binding.
B4: no binding.
B5: no binding.
B9: no binding.
B6: no binding.

target: T1, human TMEM106B; experiment: FACS A549, 10 ug/ml
Description: (§4) Purified anti-TMEM106B antibodies were evaluated for their binding affinity to various TMEM106B-expressing cell lines including HEK293 transiently transfected with human/cyno/mouse TMEM106B, as well as HeLa cells and A549 cells. Antibodies tested for this experiment were mouse IgGs purified from hybridoma supernatant. Affinity binding to cells was determined as follows. Briefly, 1x10^5 cells were aliquoted per well in 96-well round bottom plates and incubated with 50 µL of purified anti-TMEM106B antibody at various concentrations (10x dilutions starting at 10 µg/ml) in FACS buffer (PBS + 2% FBS + 1 mM EDTA). […] Sorting was performed on a iQue (Intellicyt), with sort gates drawn to exclude dead (propidium iodide +) cells. Binding data was analyzed using median fluorescent intensity (MFI) and graphed in Prism. Values presented are MFI.

Compared with B1, B2 is higher in MFI: 425 for the first, 5580 for the second.

Going from B10 to B3, the MFI rises from 4480 to 4950.

First: B11
Second: B8
The MFI of the first is lower: 4040 for the first, 6100 for the second.

Compared with B4, B5 is lower in MFI: 1090 for the first, 557 for the second.

Going from B6 to B7, the MFI falls from 4230 to 466.

target: T1, human TMEM106B; experiment: FACS U251;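 also: flow cytometry of cells exposed to antibody (purified at 10 µg/mL, or hybridoma supernatant) for 1 h on ice, with propidium iodide-positive dead cells gated out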
Description: as §1, §2, §3

Going from B1 to B2, the MFI rises from 305 to 866.

Compared with B3, B4 is lower in MFI: 1330 for the first, 328 for the second.

Going from B5 to B6, the MFI rises from 292 to 672.

Binder B7 has an MFI of 522.

target: T1, human TMEM106B; experiment: FACS HEK+huTMEM, 0.01 ug/ml
Description: as §4

First: B1
Second: B2
The MFI of the first is lower: 1150 for the first, 4280 for the second.

Compared with B10, B3 is lower in MFI: 3620 for the first, 3340 for the second.

Going from B11 to B8, the MFI rises from 3070 to 4100.

First: B4
Second: B5
The MFI of the first is higher: 3360 for the first, 351 for the second.

Compared with B6, B7 is lower in MFI: 2350 for the first, 300 for the second.

target: T1, human TMEM106B; experiment: FACS HEK+huTMEM, 10 ug/ml;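 also: purified mouse IgG antibodies at 10 µg/ml bound to HEK293 cells transiently expressing human TMEM106B, measured by flow cytometry as median fluorescence intensity of propidium iodide negative live cells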
Description: as §4

First: B1
Second: B2
The MFI of the first is lower: 3960 for the first, 57900 for the second.

First: B10
Second: B3
The MFI of the first is lower: 66300 for the first, 75300 for the second.

Going from B11 to B8, the MFI falls from 61500 to 61100.

Compared with B4, B5 is lower in MFI: 36500 for the first, 5980 for the second.

Compared with B6, B7 is lower in MFI: 69400 for the first, 512 for the second.

target: T1, human TMEM106B; experiment: FACS HEK+huTMEM, 0.1 ug/ml;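 also: flow cytometry binding of purified mouse IgG antibodies to HEK293 cells transiently expressing TMEM106B, read as median fluorescence intensity with propidium iodide positive dead cells gated out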
Description: as §4

Going from B1 to B2, the MFI rises from 1910 to 16200.

Compared with B10, B3 is lower in MFI: 22000 for the first, 19700 for the second.

Going from B11 to B8, the MFI rises from 18400 to 20300.

Compared with B4, B5 is lower in MFI: 21000 for the first, 680 for the second.

Compared with B6, B7 is lower in MFI: 15600 for the first, 309 for the second.

target: T3, GST-fusion human TMEM106B truncated (human); experiment: array SPR, Ab immobilised;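 also: antibodies amine-coupled on an MX-96 chip, antigen flowed at 500 nM top concentration in 5-fold serial dilutions, GST alone run as nonspecific-binding control, duplicate measurements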
T3 construct: also called GST-TMEM106B-truncated protein; GST-TMEM106B (truncated)
Description: Binding kinetic characterization of the purified antibodies was performed by Carterra using a proprietary array SPR instrument (MX-96) as follows. Briefly, antibodies were prepared by diluting to 5 µg/ml in 10 mM Acetate, pH 4.5 (Carterra), at 150 µL/well and then made an additional dilution at 1:10 from there by titrating 11 µl into 100 µL. […] The chip was activated with 18 mM EDC (Sigma Bioxtra) and 4.5 mM S-NHS (Thermo Fisher) diluted in 100 mM MES, pH 5.5, for 7 minutes, and then antibodies were coupled for 10 minutes at 45 µL/minute. After coupling, the chip was returned to the MX-96 and quenched for 7 minutes using 1 M Ethanolamine pH 8.5 (Carterra).
Printed antibodies were profiled for their ability to bind GST-TMEM106B (truncated) protein (described above). Briefly, GST-TMEM106B (truncated) antigen was diluted to 18 µg/ml (500 nM of 36 kDa fusion protein) by mixing 2.7 µL of 2.0 mg/ml antigen into 298 µL Running buffer (HBS-EP+, Teknova with 1 mg/ml BSA, Sigma), and titrated 50 µl into 200 µl for 5-fold serial dilutions. In addition, binding to GST (Pierce) was assayed under the same conditions to determine the extent of any nonspecific binding of the anti-TMEM106B antibodies to GST portion of the TMEM106B-GST fusion protein. Duplicate measurements for each anti-TMEM106B antibody were taken to ensure reproducibility.

In the case of B1, the Kd is reported as 22 nM and 28 nM.
In the case of B4, the Kd is reported as 17 nM and 22 nM.
For B6, the Kd was 2.9 nM and 4.1 nM.

With B1 the koff was 0.00063 s⁻¹ and 0.00097 s⁻¹.
With B2 the koff was 5.2e-05 s⁻¹ and 5.7e-05 s⁻¹.
In the case of B8, the koff is reported as 8.6e-05 s⁻¹ and 3.5e-05 s⁻¹.
For B4, the koff was 0.00054 s⁻¹ and 0.0006 s⁻¹.
B6 was tested, and the koff was 5.2e-05 s⁻¹ and 7.1e-05 s⁻¹.

B1 was tested, and the kon was 29000 M⁻¹ s⁻¹ and 35000 M⁻¹ s⁻¹.
For B2, the kon was 24000 M⁻¹ s⁻¹ and 27000 M⁻¹ s⁻¹.
In the case of B3, the kon is reported as 21000 M⁻¹ s⁻¹ and 29000 M⁻¹ s⁻¹.
For B8, the kon was 29000 M⁻¹ s⁻¹ and 40000 M⁻¹ s⁻¹.
B4 was tested, and the kon was 32000 M⁻¹ s⁻¹ and 28000 M⁻¹ s⁻¹.
With B6 the kon was 18000 M⁻¹ s⁻¹ and 17000 M⁻¹ s⁻¹.

Binder B2 has a Kd of 2.1 nM.

target: T4, cynomolgus (cyno) TMEM106B (cynomolgus, UniProt Q9NUM4 2-274 (human entry)); experiment: FACS, HEK293 transfectants;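 also: flow cytometry binding of hybridoma supernatants to HEK293 cells transiently expressing human, cyno or mouse TMEM106B, read as anti-mouse-APC median fluorescence, live cells only, 30 min on ice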
T4 construct: on transiently transfected HEK293 cells
Description: (§5) For screening of the hybridoma cell culture supernatants, humanTMEM106B-transfected HEK293 cells were aliquoted in 96-well round bottom plates (2x10^5 cells per well) and incubated with 50 µL of hybridoma cell culture supernatant on ice for 30 minutes. […] Median fluorescence intensity (MFI) of anti-mouse-APC MFI on TMEM106B+ HEK293 cells was calculated for each clone, and those displaying a signal of at least 2-fold over background compared to a secondary-antibody only well were taken forward for further analysis and characterization.

Going from B1 to B2, the “fold-change over parental HEK293” value rises from 14.3 fold to 23.7 fold.

First: B3
Second: B4
The “fold-change over parental HEK293” value of the first is lower: 44.1 fold for the first, 65.9 fold for the second.

Compared with B5, B6 is higher in “fold-change over parental HEK293” value: 17.6 fold for the first, 48.9 fold for the second.

target: T5, mouse TMEM106B (mouse, UniProt Q80X71 2-275); experiment: FACS, HEK293 transfectants;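 also: flow cytometry binding of hybridoma supernatants to HEK293 cells transiently expressing human, cyno or mouse TMEM106B, read as anti-mouse-APC median fluorescence, live cells only, 30 min on ice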
T5 construct: on transiently transfected HEK293 cells, or natively expressed on mouse Neuro2a cells; also called moTMEM106B; murine TMEM106B
Description: as §5

Compared with B1, B2 is higher in “fold-change over parental HEK293” value: 6.42 fold for the first, 18.3 fold for the second.

Going from B3 to B4, the “fold-change over parental HEK293” value rises from 32.7 fold to 45.9 fold.

First: B5
Second: B6
The “fold-change over parental HEK293” value of the first is lower: 1.42 fold for the first, 46.5 fold for the second.

target: T1, human TMEM106B; experiment: FACS, HEK293 transfectants;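 as to fold over negative controls: hybridoma supernatants incubated 30 min on ice with human TMEM106B-expressing HEK293 cells, binding read as anti-mouse-APC median fluorescence on live cells, relative to secondary-antibody-only wells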;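 as to fold-change over parental HEK293: flow cytometry binding of hybridoma supernatants to HEK293 cells transiently expressing human, cyno or mouse TMEM106B, read as anti-mouse-APC median fluorescence, live cells only, 30 min on ice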
Description: as §5

Going from B1 to B2, the “fold-change over parental HEK293” value falls from 12.6 fold to 9.96 fold.

Going from B3 to B4, the “fold-change over parental HEK293” value rises from 25.9 fold to 37.1 fold.

First: B5
Second: B6
The “fold-change over parental HEK293” value of the first is lower: 8.3 fold for the first, 29.8 fold for the second.

target: T1, human TMEM106B; experiment: FACS, HEK293 transfectants; remark: another data set of the same source;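 as to fold over negative controls: hybridoma supernatants incubated 30 min on ice with human TMEM106B-expressing HEK293 cells, binding read as anti-mouse-APC median fluorescence on live cells, relative to secondary-antibody-only wells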;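 as to fold-change over parental HEK293: flow cytometry binding of hybridoma supernatants to HEK293 cells transiently expressing human, cyno or mouse TMEM106B, read as anti-mouse-APC median fluorescence, live cells only, 30 min on ice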

B1 and B2 cannot be ordered by “fold over negative controls” value: greater than 2 fold for the first, greater than 2 fold for the second.

B10 and B3 cannot be ordered by “fold over negative controls” value: greater than 2 fold for the first, greater than 2 fold for the second.

B11 and B8 cannot be ordered by “fold over negative controls” value: greater than 2 fold for the first, greater than 2 fold for the second.

B4 and B5 cannot be ordered by “fold over negative controls” value: greater than 2 fold for the first, greater than 2 fold for the second.

With B6 the “fold over negative controls” value was greater than 2 fold.

target: T1, human TMEM106B; experiment: FACS HeLa;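 also: flow cytometry of cells incubated with hybridoma supernatant or purified antibody at 10 µg/ml for 1 h on ice, propidium iodide–positive dead cells gated out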

Going from B1 to B2, the MFI rises from 437 to 1870.

First: B3
Second: B4
The MFI of the first is higher: 2660 for the first, 596 for the second.

First: B5
Second: B6
The MFI of the first is lower: 548 for the first, 1200 for the second.

In the case of B7, the MFI is reported as 168.

target: T5, mouse TMEM106B; experiment: FACS Neuro2a;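 also: flow cytometry of cells stained with antibody or hybridoma supernatant (purified antibody at 10 µg/ml) for 1 h on ice, propidium iodide–positive dead cells gated out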

Going from B1 to B2, the MFI rises from 385 to 1040.

Compared with B3, B4 is lower in MFI: 3040 for the first, 604 for the second.

Compared with B5, B6 is higher in MFI: 392 for the first, 706 for the second.

For B7, the MFI was 202.

target: T1, human TMEM106B; experiment: FACS A549, 1 ug/ml

First: B1
Second: B2
The MFI of the first is lower: 379 for the first, 2870 for the second.

Compared with B10, B3 is higher in MFI: 2880 for the first, 3150 for the second.

Compared with B11, B8 is higher in MFI: 3030 for the first, 3930 for the second.

Compared with B4, B5 is lower in MFI: 663 for the first, 409 for the second.

First: B6
Second: B7
The MFI of the first is higher: 2030 for the first, 404 for the second.

target: T1, human TMEM106B; experiment: FACS HEK+huTMEM, 1.0 ug/ml
Description: as §4

Compared with B1, B2 is higher in MFI: 2620 for the first, 54600 for the second.

Going from B10 to B3, the MFI rises from 64500 to 77800.

Going from B11 to B8, the MFI falls from 63500 to 63300.

Compared with B4, B5 is lower in MFI: 44400 for the first, 2140 for the second.

Going from B6 to B7, the MFI falls from 69400 to 337.
